Reference: publication PMC8854693

Target: intact GluN1b-GluN2B NMDA receptor (rat) (UniProt Q00960)
Sequence (Q00960 whole entry, looked up): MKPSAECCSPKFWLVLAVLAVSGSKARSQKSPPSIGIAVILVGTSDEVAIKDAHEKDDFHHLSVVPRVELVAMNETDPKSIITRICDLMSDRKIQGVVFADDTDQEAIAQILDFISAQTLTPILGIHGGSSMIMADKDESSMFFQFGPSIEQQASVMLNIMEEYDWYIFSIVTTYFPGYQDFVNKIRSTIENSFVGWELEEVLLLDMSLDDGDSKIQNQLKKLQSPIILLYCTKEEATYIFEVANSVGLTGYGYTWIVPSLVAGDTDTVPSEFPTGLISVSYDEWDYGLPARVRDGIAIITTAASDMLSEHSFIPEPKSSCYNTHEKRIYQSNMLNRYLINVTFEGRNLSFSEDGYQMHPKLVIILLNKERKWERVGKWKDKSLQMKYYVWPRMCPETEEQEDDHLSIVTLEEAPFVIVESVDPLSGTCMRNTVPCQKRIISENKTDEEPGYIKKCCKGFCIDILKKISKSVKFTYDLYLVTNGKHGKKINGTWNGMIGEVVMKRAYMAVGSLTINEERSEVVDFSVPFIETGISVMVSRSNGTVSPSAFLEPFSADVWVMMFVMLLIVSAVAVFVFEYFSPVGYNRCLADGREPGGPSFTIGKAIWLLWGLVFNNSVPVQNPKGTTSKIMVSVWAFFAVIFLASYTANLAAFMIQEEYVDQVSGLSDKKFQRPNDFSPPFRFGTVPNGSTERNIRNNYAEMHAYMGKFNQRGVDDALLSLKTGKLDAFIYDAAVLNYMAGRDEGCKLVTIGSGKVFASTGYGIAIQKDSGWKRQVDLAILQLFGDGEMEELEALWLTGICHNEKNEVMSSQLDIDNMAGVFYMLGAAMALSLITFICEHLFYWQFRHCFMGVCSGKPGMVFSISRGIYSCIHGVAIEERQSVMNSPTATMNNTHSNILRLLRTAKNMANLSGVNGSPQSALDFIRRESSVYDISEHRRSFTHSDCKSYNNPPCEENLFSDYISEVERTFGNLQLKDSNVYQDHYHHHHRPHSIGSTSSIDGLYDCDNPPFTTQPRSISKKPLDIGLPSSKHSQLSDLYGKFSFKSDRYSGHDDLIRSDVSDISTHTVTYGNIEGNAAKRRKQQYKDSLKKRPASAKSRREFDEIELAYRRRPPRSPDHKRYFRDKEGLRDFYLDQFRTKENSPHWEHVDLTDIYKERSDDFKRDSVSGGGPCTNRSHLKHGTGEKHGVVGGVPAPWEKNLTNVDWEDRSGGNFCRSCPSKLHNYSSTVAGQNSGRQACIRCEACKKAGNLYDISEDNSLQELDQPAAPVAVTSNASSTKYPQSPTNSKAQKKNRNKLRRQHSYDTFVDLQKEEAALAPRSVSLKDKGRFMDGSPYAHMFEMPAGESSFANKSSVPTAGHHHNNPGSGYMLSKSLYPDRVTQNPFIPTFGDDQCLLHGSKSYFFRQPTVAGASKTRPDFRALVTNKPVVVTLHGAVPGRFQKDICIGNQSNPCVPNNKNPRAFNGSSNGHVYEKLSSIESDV

B1: Fv2, variable fragment (Fv) of IgG2 (protein)
VH: DVKLQESGGGLVQPGGSLKLSCAASGFTFSSYTMSWVRQTPEKRLEWVAYISNGGGGTYYPDTVKGRFTISRDNAKNTLYLQMNSLKEDTAMYYCARPSRGGSSYWYFDVWGAGTTVTVSS
VL: DIQMTQSPSSLSASLGGKVTITCKASQDINKYIAWYQHKPGKGPRLLIHYTSSLQPGIPSRFSGSGSGRDYSFSISNLEPEDIATYYCLQYDNLYTFGGGTKLEIK
In the case of B1, the GluN1b-GluN2B NMDAR current, TEVC on Xenopus oocytes, Fv2 at 0.1 mg/ml (% of maximum current) is reported as 60.
